How the values were obtained:
[1] = target: Axonemes purified from sea urchin sperm, used as microtubule tracks (sea urchin); assay: optical trapping; fixed (stationary) trap, low z-force: oligo-labeled full-length KIF5B on 510-nm beads through a 2.8 kb DNA handle, single motors, surface-immobilized axonemes, 2 mM ATP, 30 mM HEPES, 5 mM MgSO4, 1 mM EGTA, 10% glycerol, pH 7.4 with casein
[2] = target: Axonemes purified from sea urchin sperm, used as microtubule tracks (sea urchin); assay: optical trapping; fixed (stationary) trap, high z-force: biotinylated K560 directly on 860-nm streptavidin beads, single motors, surface-immobilized axonemes, 2 mM ATP, 30 mM HEPES, 5 mM MgSO4, 1 mM EGTA, 10% glycerol, pH 7.4 with casein

Row | stall time before detachment (weighted average of the two decays) [1] | stall time before detachment (weighted average of the two decays) [2] | Substance
1 | 1.49 s | – | KIF5B-GFP-SNAP, full-length human kinesin-1 KIF5B, oligo-labeled (from UniProt P33176 1-963) (natural protein)
2 | – | 0.27 s | K560-GFP-SNAP, tail-truncated, constitutively active human kinesin-1 KIF5B (amino acids 1-560) (from UniProt P33176 1-560) (domain or fragment)

— paper PMC13384491
